We go through 34 sequences from the domain aggregation screens of Martell et al. (2025).

This data set in a line: soluble fraction after stress (log2 fold change); higher = more stays soluble; pooled small domains, quantitative proteomics. Particulars: stress: pH 4. The gist of the method:
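Small protein domains from pooled custom libraries were exposed to pH 4, then quantified with high-throughput quantitative proteomics. The fold change in how much of each domain remains soluble is read as aggregation propensity. It is given as log2, with higher values meaning more stayed soluble.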
For the sequence “HMEQQSIYLENRERMTINQVIDVDAFDEETLWANLKEGAVEISGSGLHIEKLDLAEGVLIVSGIIRAFAYV”, the “soluble fraction (log2)” value is -0.423.
On to “HMEQQVDYTQFIQDVRQGQIREVDVDRNGVINGIKRSGENFVTVIPGGYDRDLINDLVKQGVNATGEL”, for which the “soluble fraction (log2)” value amounted to 0.14.
The same measure for “HMEQVKFFDAKVITTPPNRLKTRYTPAGNLRPEADWLQSGAIVPVYETSGAGWYRIGYQTWASAEWMQRLD”: 0.166.
With “HMEQVSDPALLERYAKEVVAASPKAVADYQAGNAKAFQALVGQMMKRTKGKGDPALIREILQKL” the figure was 0.143; with “HMEQVTMSNFLDKWGTSTKSPNAWYTSLSPMQKAEAKLLKEESGLTWNKWYEKNIYVGDGTN”, -0.264; with “HMERAYGVRVSLRLDDPFRTLLGADWSRTHWFASAEERDAALLEMSRKHEFSRPGDQPALVYEKVQN”, -0.471.
As for “HMERDVNQLTPRERDILKLIAQGLPNKMIARRLDITESTVKVHVKHMLKKMKLKSRVEAAVWVHQERI”, the “soluble fraction (log2)” value stood at 0.0307.
With “HMEREQNILQGREVVERELRRLGLAEAYTVSDIAKALKFDDEEQFLAKVGFGDIQSRQISGAIALMEKN”, the “soluble fraction (log2)” value is -0.553.
For “HMERFLENAIPVLGETGLDIKSATEDFENALIRQALHLSGGNKNRAATLLGLKRTTFVEMLKRKSL”, the “soluble fraction (log2)” value is -0.398.
The same measure for “HMERFMEFVITDTQQGQRLDVVLTETTEHLGSRSHMQRSIRAGLVSIDGITTTRASTKVSSGQIIRVEPT”: -0.629.
As for “HMERGEFQKLGRATLEQTLARAGKTLAEVSLKAMLETFAFAAEEDLYEALGRGRVSAAKVGETLFPALKGR”, the “soluble fraction (log2)” value is -0.942.
The same measure for “HMERKMKNNISDQTTYDTDKILNFNGKGYLNGLVIPNNYQIKEEGYYVFRQVALDGREQILYFTIQDLS”: -1.56.
Take “HMERLSVSMGDMVVFVRDAVEAFRGLVKEKGITLTFESKVEHFYMNYDHDKVYKVVNNLLSNAVKFT”: the “soluble fraction (log2)” value is -1.31.
“HMERLTVVPELLKRSLSEAQPLVTSARLRLEVSGGAPEDTSRAIVVGQKPPPGTRVQVGTTVIVTVQIQRP”: the “soluble fraction (log2)” value is -0.403.
Consider “HMERPYNGKQMEYHEGGVEKKETLFVEGGLSRVIQWDESGQKRSEVNISPTGVRREQYWDSSGKAIAKPS”, for which the “soluble fraction (log2)” value was 0.0672.
With “HMERQAEAWTNRASALISLGRDEEALEAADRAIELDPRLSKAWIDRSTALSNLGRNDEANEAIQMAMFL” the figure was -0.962; with “HMERQILFTKEDLIEFGLSGGTDSRKRRDVLGHILGIGYSNSKQFLNRLNNFGVTREEFLSAIERIG”, -0.454; with “HMERTVEVVDINDVFSQFLRLYSRERAAGLLSVFKRVEHGLSWQGNPVLLERILSNVFENAIKYAA”, -0.424.
With “HMERVIYLLNGREVPAAEIRAAEPEALTVDRFYSSENLPAEYRDRNPELVVAFTAEEPLRHY” the figure was -0.559; with “HMERVNILEKATKDIPNVEVKAFEGLSVNFARENHAQVIVRGLRAVTDFEYELQMAQTNRVLAPDVDTVF”, 0.317; with “HMERYSVQVGSFRNMRYAERLKQELQGEDFPAYIEKSGEFNRVRVGKGLTLEEATQLEQVLRKSGYQTVIV”, 0.0226.
With “HMESIGANIRRLRKERNMSQDELARKAFTNRSNINRYESGKMVPSADTTEKIEEALGVPAGTLAQ” the figure was -0.638; with “HMESKDIRYVQLQTVSPEEVLQALALIMPRSDVYVEPTGKLVVLHGSKETLDRAEELILALDNAV”, -0.641.
Consider “HMESKITTAEAAAILNASPQFVRVAMQRGILNIGIAMQMPNSNKWTYNISPKLLGEYSGKNIEYELERLR”, for which the “soluble fraction (log2)” value was -0.692.
Turning to “HMESRTQVYDFYKDLFREKRRPLRAEEMLSALKSQRGIVGVNQYQIIEQHGIVRLSGSGRSALYWDTDLGS”, the “soluble fraction (log2)” value is -0.746.
Consider “HMESSREVSFSEFMKQIDSGRVSSVKLDGETIYVRNSDGTSYKVIQPLGTDLIGVLRKSDIDVQAIKQ”, for which the “soluble fraction (log2)” value stood at 0.165.
With “HMESYNIVEQVLTKKILSKGNTLAKLSNEFDGLVMLVIRGDEFIIPNGETLLFEKDILVINNGP” the figure was -1.2.
The same measure for “HMESYTGLAVTEDDDGWSNVRSGNSTSYSILFKIYAGEKFNILSNDGKWSYIDFNGRKGYIHNSIIRKY”: 0.31; for “HMETAADLLAAAKENPARFGILASEGRFGLGYMNDDLLDPDNLVAISREEADDLRGLGVYFHNLD”: -0.308.
Take “HMETALYVEDLDRAVRFYESVMGLNTMSRGVRLVALDAGEGTVLLLFLRGATTSGASFEGGWIPPH”: the “soluble fraction (log2)” value is -0.257.
The same measure for “HMETDNEKVRTAFQNGLAAYREQDWDRAEAAFGAVLAEMPEDRPSLVYLERIAHLRKKAPPGAWDGVWI”: -1.07; for “HMETENLSPREREILEYIVKGYSYKMIAADLNIATETVRSHIKKIYKKLQVNSATEAVYKYSN”: -0.424.
The same measure for “HMETEQVEMIRVVGMHVDEAKKALLDLGLSPEIKYEESSSYDAGTVLRASVQDGLMIDKGTNIVLTVAEA”: -0.549.
For the sequence “HMETFEKIKELAKKRGKALGQVEEDLGYGRNTLYKIKNSTPNAERIAEIANYFNVSTDYLLGRTDNPTIAK”, the “soluble fraction (log2)” value is 0.104.
